Test system: Saccharomyces cerevisiae
Assay: transcriptional activation domain activity (GFP:mCherry ratio, weighted mean of sorted bins, harmonized to initial dataset scale) (arbitrary fluorescence ratio units); higher = stronger transcriptional activation
Conditions: beta-estradiol 1 µM; induction time 4 h
Outline: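 In diploid yeast carrying a GFP reporter, barcoded protein tiles fused to an estradiol-inducible synthetic transcription factor were integrated at the URA3 locus. Cultures diluted 1:5 into SC with 1 uM beta-estradiol were kept at 30 °C for 4 hours, then sorted by GFP:mCherry ratio into 8 bins before barcode sequencing. Tiles with under 50 reads were excluded. The activation activity reported here is the read-weighted mean of bin median fluorescence, averaged across barcodes and linearly rescaled to the initial dataset.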

| Sequence | transcriptional activation domain activity |
| --- | --- |
| EHHLLKALVDVIKRAMLISAQGASGRFEAKDLHLEHMIYWLKYFLNRAVCIAL | 62700 |
| RQRQQNGRAPRAPRAEKPTDGFEVKEGRGERRGRGEGRGEGRGRGRGGRGRGR | 13000 |
| SKARSRGQSSRTRKRGRQESSGESSSSEEEDSYRGRQGRSKAGKKGKDKGKGK | 27200 |
| SALFCKIWTIIQAYYIVISFISIHNCMPCTMPFHHECVGSIPLWLWVTWLPSI | 40400 |
| RTPTYDRRTIIQGLQQAEMNLDNSFKRVSEMILMLMIRMHDWSTLRRRFQMDQ | 45200 |
| EAERERLEREVEAENVRKAEEERKEKERLVKEARERAAREAAEREAAAAAAAA | 52700 |
| SYINTHNSNDNNNLMGSQARSNSQTPTASTIYEEAESQSSYLDDMFRTSQGGR | 43100 |
| MYYCLFFFFVSFCISLCFFYYYSQLCFFSTSFFAVSRGFFFISLSFLVCVWTI | 57300 |
| LHGSIHEGLCRMLINIFIENLVLKEDVLLALCIQVLFPKEYITKGLMDAIKKD | 13900 |
| TAGAATNNKRNRLKVNGKVFTRLDVIGRGGSSRVYRVMAENSKIFALKRVSLD | 35800 |
| AKPDVKKAKAAPVASPKPKAKAAKKVAEPAVEEKKVEEKAEKLAKKAKATKAE | 32700 |
| MIASSPGGILCGILLFLLFFLLPCDLPLPFVSCFFSLFSPFLMFLFFLPYFFS | 40700 |
| MLFPPPPFSLFFFSLPFFLFFKTDLFFPCLIFLIPLYPFSPLVGDRLAILLGV | 55100 |
| LRNGYVDLGTHCITLFAQLMYVDCRTVFAEQIFTLAWYTTKGMGTIIATIGDY | 43400 |
| MLSIYNLQTRGIHPPNVVVGMAIFCGGLAHIFLLLFRSWNVGIICSMSCHILL | 66200 |
| LLQLWYMHKSLVLADPTLVCPLAFCFYNLSSIINGLVYFDQFAFLSTLHLLLV | 25400 |
| IGVLHQVFFYKNLIWTFALLLFQIFCESNATYLFDYSLVLLFNLIFTSLPVIM | 53200 |
| MSENVDPPSPHDKSEAPTKRGRGRPKGSKNKSAAAGAVEQEDPAPVIPRKRRL | 36300 |
| LLTFLLFSIFFFERLPHLYRSISLLLRPCFRLNIHFIFLILSRVFMYGSYGSF | 55300 |
| FFFVNGMWYNMAYIFGSWKLGWWELGAKIFVFQEVYETLLYLLTPFILPISFY | 48600 |
| MGRVGGLFIMEGCLCVYRLLLYPSSCVWVSDTRGWLWLWWLWWWVVVVVWGVC | 44600 |

| Sequence | transcriptional activation domain activity |
| --- | --- |
| HSLLRGDKETGVCVIEMTPFKQGIDSGAIYGKKTVLVVFCLVKLLLSQAVPES | 28600 |
| STTYYVLSLITFSSFPSIMVSYYSLLFSFFFISLCFLFPLPFVSSLFSHLILF | 40300 |
| YLPYIVFPLTPQLSGPLCELYPSRGNLYDIFLHSILIMMQLPFILSVPFWLLF | 45500 |
| MLQQVPRVCIISIFWNISALWAAKRFEPMVSAYSLLSNVPYVLRLVCSWQPTE | 32200 |
| ERLPVDLAVLCTIVEKLFGLAIMTARHRDLGSLHGVLLPRTWILSLWGDFLRF | 71700 |
| MPQTAGQAVWHFILSLLYYQFVPFHIRRFIFSCFPLPVNIPTLFVFLNVLFFW | 51600 |
| GGVSRIRQGERQGAGAGGAEGKSRKGAAAGRGKGGEQGGERGGSREGKGGGAG | 37500 |
| TAAPYHKLAYHPALSPKISLGFWPFQHILTFLDYKEYVLQWTLLVTVQIPWFN | 64700 |
| IQSGDEGKDRKGREKVEDRSKRSRRRSRSRSKDRSRGKRRRDDHEGTKGGGQA | 41100 |
| MVFSLASLSLLCLCLISFFFYLFFFFFFYQIPSPCFALWLANFYLSCRAWLDK | 46600 |
| QGIEPLLPPKWGMLVGEARDLLVLFGALGEQERWNFWTTGCSYMTAMVLLTAN | 53000 |
| MWLVEVQLLHQSHSLLSHIICLFFLSPHLPSFVFSGALFVYSVMLVSLFFLYL | 37400 |
| MYGYCLLFYLFLFSFISLFYFYFYFYILYFLLLILIFFYFTTVLVSFHFILFF | 43400 |
| TDPKPITDNGKNVPLDEIESLEIPNLDLTTTMNGYDVNLLMQNLNDMVNMKLH | 91600 |
| MSENTAIENVTVTLEKTKLDAPVTNEAEVAHAASAAEGRRLYIGNLAYSTTEE | 16900 |
| MHPPTHYRLLSPPLFPYIFFFQVGFLLRFFSLFFSLVSLVLILCVTFFFFFFG | 57500 |
| EGDSDEEGDEDMYQQVDMNDVMDGVLEGMDNMGEERLNRGRARLKIHTGGPGK | 37300 |
| MDLGSAVPAPRRRIRDRTSQACNRCRATKIRCDNQAPACSPCRAKKLECIRDP | 37600 |
| FFLCTFTFFSFCLHLFLFLCVYRLYPTFCSVYPFFPFPILLLFIWLFMWFFIS | 71800 |
| GIMILCCTLVVLTRLMGHRILPYTYFTSCLLMQIDFILGMIWDMDPFKVRRFC | 44600 |
| IPENELLDEDTMNFISSLKNDLSNISNSLPFEYPHEIAEAIRSDFSNEDIYDN | 98200 |

| Sequence | transcriptional activation domain activity |
| --- | --- |
| GDEEREQRKKHKKRKDRGSDDEDRHHKHKHKKDKHREKGTKDSKKHRGNEPSS | 64300 |
| KVERGREVRKKAREEREKRGATGGGRGKGRGKGKGKGRDGERGKSAAEEGAGA | 10800 |
| AYNALQILSWTCRLICSSVLSLHWFRPGHESILQLYDSITFFLTMFFIELLSH | 49100 |
| FSSINANPFDLDEQLAIELSAFADDSFIFPDEDKPSNNNNNSNNGNDDHSNHD | 80300 |
| RKAEEEEEEEAEAKAEKKKPAHGVPFEGTSKSARARARKRAKKEAEAAAATPA | 17800 |
| EEERGEERREGEERVEQGEEGAGGEGDEEGRSAEHGAGGELAERRGEAGDAEV | 22900 |
| VFFFLVIALYPFFSSLFTRHGFYTFSPFNCQLSWLFFQWGHSILLFLLRLVSY | 46600 |
| SFLSLFWLLCLGRFPIITKLFLGLYAVFYYVSRYKIGICFVVSIRWIWKSGNR | 45600 |
| WRHLFLGQLPLLMSEPFTNSTPIIDPLLNNDFELIDFEVNLMKYLQSKDQQLS | 117000 |
| LLPKSFPYSFFILFFFFLNFLLSSCFFLLFFPSPIRLSPSFTLVVIFHYFLRF | 51500 |
| LHQSGITHVYYLVENYSKQILLSHFLLNDISFRGWIMLLRNMSFRSIRHCQST | 54800 |
| MSWIVWSGKHIHMSCNFIFIICPNNMKYMLSVFWRWFYKRSVIWKVWIRLFFI | 47600 |
| AKSAKGGSRRKSAATSTRTSAPRRSTGNDTGRSFKPAKDARGSSSGDAEDKIK | 37200 |
| MDILDIFFLFYSLLVSFLFFFLLITLLFLSPFISISFYFLTAFYVYFWVFFRA | 34100 |
| ILRVERTGHSGTLDPKVTGCLIVCIDRATRLVKSQQGAGKEYVAVIRLHGKLP | 33800 |
| ESASTNTSSALNCQSYTNNQDIMDILFQVTSGSVWDEFFVRSGNGNEGESSYD | 86700 |
| KKKAAAEEDDEDDDEKVPAKKPAKRGRKKAADDEADEPQPPAKKAKKSPAKKT | 55800 |
| MFKGTLLLVFFHYGWALFLDYCLWYIMISLCFWYRVCLPVLLLGFHVCCHLWC | 48500 |
| DRHLDHGQLVYLLHSIVTCPRFQPMVRAIIVSRELPFFVQTWPWPYLSLLART | 36100 |
| MAFKLSTAEKVYLALRLTLLTPFHILTSLIRSFILSLSRGLPPRLFWVCAVLR | 49500 |
| CPQPLIYCKPCKILQTQYDRLHINHMTFNMISHHLYRGLLPLLVVVCLLGKIV | 62100 |

| Sequence | transcriptional activation domain activity |
| --- | --- |
| PMAVTLIERNVILGLRNAKTTDQLNTLINSLPFNNTSMLFLRLAMTKLSVIWS | 59900 |
| MTLGLMAFSEYNFADYACLFLFSSFLLFYLIFPIFSFLLLCVYFFFVSFHLYA | 27600 |
| EIKEATGEEHQEEQEDAIDSKEKVVMQSCPEVSLRRIRRLLRKHKGDPNKVID | 27300 |
| WSVVFPLQEEEKKKNEEEGLAFPSLDNIKGILRPDSCMRLGSSANIVVLTFPD | 53600 |
| FFFFLLLLLLFFFLLRFLLLVYYYPNHPTHTYQPISFQFQPTHQIHHNALQHH | 32200 |
| MFPFVFLSSFLSCFRLYSFNTCYIFSLILLCWYTFLLSYNGSLFCYPMIVYFL | 70400 |
| DQTICAEVMRCCESNVVAFRRLVHMIQIQLRNIGIMADIRLVRNLVLVLHGAL | 62000 |
| DGGDGDDGSGGEVERAGKSGRAKREGKRGAEEEEEERGDGRAARKTAEKRKKR | < 6570 |
| TLDTVMRDTANMDWVRFLPLSLLFTSFIFSPLSFSLFRMYVHALLFFCFTFTP | 49600 |
| NSFPKECEVVHEELRKLTHLVSALPREGLLYHGRLILRYLETVVCACLIMFDG | 71100 |
| YYLGKYQENSKEKRKFQVIRSGMSELNHILYMALDNATNMVIMWMLLVQYHAT | 55600 |
| RRGEGRRGEGRRGEGRRGEGRRGEGRRGEGRGGEGRGGRGGRGRGSSGTGTGS | 28000 |
| MPSFTLAWPDRAYFYSLLVVSLLSAKFLHLFSHLTALPIFLFLLYFPTFVFLD | 76700 |
| PSHRSVTPFLGQQQQLQSLVPLTPSALFGGANFNQSGNIADSSLSFTFTNSSN | 49800 |
| DIPGLAPTYLDNQAFLMADTVDIPGDYNLFFDNFDISNFFLPATVYDSELPVS | 137000 |
| DEDATNENMSGPAMDVDEARNFINARLDLLKRTLHPNPIVVTAQLLKAVWAAY | 36200 |
| MVVILYFFFYIFIKNRLGLVRVIFLFLVYHIQLLVLFFFGPFLPLVLLLLLLL | 35900 |
| SFPIRHIEDKLRNKGHVKTGILSANDGVPPTPNLLDYDWNNLNITGYEWISSE | 93900 |
| GDSTNGNNSPVEDEANLRRKAKKRREKEREREEKKRVGRREKAKKTNGGEKQG | 27000 |
| HCNGLLGNADLFEDPYQDELTSELHVLVTERLVNSWKDTILQQLCSCQDTTLS | 83700 |

From the supplement of paper PMC12636428
